This is an account of results in PMC10906245, “Hydrogen–Deuterium Exchange Mass Spectrometry Identifies Local and Long-Distance Interactions within the Multicomponent Radical SAM Enzyme, PqqE” (ACS Central Science, 2024).

A word on the Kd: it is the concentration at which binding is half-saturated.

Assay [1] concerns the target PqqE in complex with PqqD (PqqDE) (Methylorubrum extorquens, UniProt P71517). As to the kind of experiment: HDX-MS, PqqDES versus PqqDE. It counts as binding. Conditions: no PqqA, no reductant, site at RS Fe4S4 cluster (peptide 21-32).
Assay [2] deals with PqqD (Methylorubrum extorquens) (UniProt Q49148). Conditions: cited from earlier work.
Sequence of PqqD (Methylorubrum extorquens) (Q49148 whole entry): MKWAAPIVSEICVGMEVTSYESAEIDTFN
In assay [3] the target is PqqE (Methylorubrum extorquens) (UniProt B7KXC6). Conditions: cited from earlier work.
Sequence of PqqE (Methylorubrum extorquens) (B7KXC6 whole entry): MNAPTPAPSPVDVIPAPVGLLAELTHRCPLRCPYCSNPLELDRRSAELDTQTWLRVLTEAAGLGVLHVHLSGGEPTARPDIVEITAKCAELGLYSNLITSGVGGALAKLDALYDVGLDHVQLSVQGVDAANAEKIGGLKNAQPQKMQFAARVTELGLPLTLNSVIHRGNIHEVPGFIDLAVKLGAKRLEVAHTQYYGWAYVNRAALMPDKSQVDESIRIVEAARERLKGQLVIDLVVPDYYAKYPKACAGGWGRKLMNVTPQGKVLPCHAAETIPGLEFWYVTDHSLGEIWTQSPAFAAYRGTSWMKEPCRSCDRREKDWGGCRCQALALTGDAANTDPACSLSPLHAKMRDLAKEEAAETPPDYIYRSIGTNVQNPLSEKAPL

Sequence of PqqE in complex with PqqD (PqqDE) (Q49150 279-372): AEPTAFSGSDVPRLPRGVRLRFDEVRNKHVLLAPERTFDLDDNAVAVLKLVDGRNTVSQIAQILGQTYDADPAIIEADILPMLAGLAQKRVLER
Sequence of PqqE in complex with PqqD (PqqDE) (P71517 whole entry): as the sequence (B7KXC6 whole entry) above, with S286A, Q293K counted along it

For `C[S+](CC[C@H](N)C(=O)O)C[C@H]1O[C@@H](n2cnc3c(N)ncnc32)[C@H](O)[C@@H]1O` (stereo partly drawn) [SAM, S-adenosylmethionine], the “HDX-MS, PqqDES versus PqqDE” value in assay [1] is given as “When SAM was added to the PqqDE complex, we identified one type I peptide”.

As to PqqA (from UniProt Q49148), the Kd in assay [2] is 390 nM. With PqqD (from UniProt Q49148), the Kd in assay [3] was 4500 nM.
